Here are results for 6 molecules from patent US12410245 (UNIVERSITY OF VIRGINIA PATENT FOUNDATION, dated 2025).

Where a chain is given by its changes, count along the chain named. Values joined by “and” are separate entries in the source; they are usually repeats but may differ in a detail not shown here. Equal values may be shown once.

The target of test [1] is FnIII9*10 (UniProt P02751). Briefly: SPR (Biacore 2000), integrin immobilized, Fn fragment as analyte.
Test [2] has as its target FnIII9-4G-10 (UniProt P02751). The description is as above.
Test [3] deals with FnIII9*10 (UniProt P02751). Put plainly: SPR. For orientation: SPR reads the build-up and loss of mass on a sensor chip optically.
For test [4], the target named is FnIII9-4G-10 (UniProt P02751). Briefly: SPR.
The target in test [5] is FnIII9-4G-10 (UniProt P02751). Briefly: SPR, ratio of the KD values (107 nM on FnIII9*10 against 16 nM on FnIII9-4G-10).
The target in a further test is T1, FnIII6-9 (UniProt P02751-1 1085-1446, limits assumed).
T1 construct: domain: FnIII6-9; also called FnIII9 (FnIII6-9); Fn fragment including the 9th type III repeat
Put plainly: SPR, Fn fragment immobilized; SPR, FnIII6-9 immobilized (other target: fragment with the 9th repeat).

For another test, the target named is T2, FnIII10-14 (UniProt P02751-8 1447-1901).
T2 construct: domain: FnIII10-14; also called FnIII10 (FnIII10-14); Fn fragment including the 10th type III repeat
Briefly: SPR, Fn fragment immobilized; SPR, FnIII10-14 immobilized; fitted KD given in the text (FIGS. 9D and 9E).

Test [6] concerns the target FnIII9-4G-10 (UniProt P02751). Briefly: phage ELISA on maleimide plates (HRP anti-M13); absorbance (450 nm minus 650 nm) on 4G divided by absorbance on 9*10. (In general: ELISA stands for enzyme-linked immunosorbent assay.)

Sequence of FnIII9-4G-10 (P02751 other isoform, or with tags, fused parts or gaps): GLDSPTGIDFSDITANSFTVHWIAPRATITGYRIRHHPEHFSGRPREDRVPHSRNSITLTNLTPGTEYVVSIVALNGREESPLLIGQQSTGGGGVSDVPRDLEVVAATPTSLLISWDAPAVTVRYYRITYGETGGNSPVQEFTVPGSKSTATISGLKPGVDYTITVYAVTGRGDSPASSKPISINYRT
T2 sequence (P02751 other isoform, or with tags, fused parts or gaps limits assumed): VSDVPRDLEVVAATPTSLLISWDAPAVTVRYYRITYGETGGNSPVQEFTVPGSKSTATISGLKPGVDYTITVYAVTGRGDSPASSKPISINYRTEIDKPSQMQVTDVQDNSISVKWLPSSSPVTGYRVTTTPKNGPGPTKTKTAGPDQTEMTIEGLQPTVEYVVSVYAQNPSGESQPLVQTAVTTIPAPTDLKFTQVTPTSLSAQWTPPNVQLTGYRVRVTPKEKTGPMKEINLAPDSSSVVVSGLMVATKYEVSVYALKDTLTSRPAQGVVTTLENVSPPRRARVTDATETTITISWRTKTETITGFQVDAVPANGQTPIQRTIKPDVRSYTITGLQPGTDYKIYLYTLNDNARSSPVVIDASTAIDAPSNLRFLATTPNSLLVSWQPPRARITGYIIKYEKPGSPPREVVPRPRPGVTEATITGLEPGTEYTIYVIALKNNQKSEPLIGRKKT
T1 sequence (P02751 other isoform, or with tags, fused parts or gaps limits assumed): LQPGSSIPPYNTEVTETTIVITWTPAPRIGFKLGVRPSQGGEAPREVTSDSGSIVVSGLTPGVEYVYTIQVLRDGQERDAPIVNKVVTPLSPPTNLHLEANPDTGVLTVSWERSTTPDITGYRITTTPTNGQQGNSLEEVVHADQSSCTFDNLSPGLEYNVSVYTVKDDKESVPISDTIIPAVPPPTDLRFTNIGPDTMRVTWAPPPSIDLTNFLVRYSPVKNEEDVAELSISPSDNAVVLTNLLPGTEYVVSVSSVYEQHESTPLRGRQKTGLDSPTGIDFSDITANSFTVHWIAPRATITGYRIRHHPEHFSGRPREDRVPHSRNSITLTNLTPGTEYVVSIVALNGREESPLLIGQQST

In general, Kd refers to the concentration at which binding is half-saturated. For “integrin αvβ3 (R&D Systems) (from UniProt P06756 31-992; P05106 27-718) (receptor)”, the Kd in the test with FnIII9*10 [1] and with FnIII9-4G-10 [2] was 0.04 µM throughout.

B1: H5 scFv (scFv)
scFv: EVQLLESGGGLVQPGGSLRLSCAASGFTFSSYAMSWVRQAPGKGLEWVSDIYDGGGTNYADSVKGRFTTSRDNSKNTLYLQMNSLRAEDTAVYYCAKTADNFDYWGQGTLVTVSSGGGGSGGGGSGGGGSTDIQMTQSPSSLSASVGDRVTITCRASQSISSYLNWYQQKPGKAPKLLIYAASTLQSGVPSRFSGSGSGTDFTLTISSLQPEDFATYYCQQANSAPTTFGQGTKVEIKRAAA
notes: Soluble scFv from E. coli, purified by Protein-A; also called clone H5; H5 antibody
Regarding B1, the dissociation constant Kd was 0.107 µM with FnIII9*10 [3], 0.016 µM in the test with FnIII9-4G-10 [4], 0.0348 µM with FnIII6-9 and 5.1 µM with FnIII10-14. The selectivity of binding (fold, against FnIII9-10 as reference) with FnIII9-4G-10 [5] was 10 fold. Also, in the test with FnIII9-4G-10 [6], the 4G/9*10 Ratio is 1.21 and 1.02 and 1.06.

B2: H5 Modified Clone R1H6 (scFv)
scFv: B1 scFv with L78M
On to B2, for which the 4G/9*10 Ratio with FnIII9-4G-10 [6] is 1.62.

B3: H5 Modified Clone R4B8 (scFv)
scFv: B1 scFv with D103Y
B3: the 4G/9*10 Ratio with FnIII9-4G-10 [6] was 1.49.

B4: H5 Modified Clone R1F8/R1H8 (scFv)
scFv: B1 scFv with A96T
On to B4, for which the 4G/9*10 Ratio in the test with FnIII9-4G-10 [6] was 1.42 and 1.33.

B5: H5 Modified Clone R2G3 (scFv)
scFv: B1 scFv with P41S, N73D
For the molecule B5, the 4G/9*10 Ratio with FnIII9-4G-10 [6] came to 2.53.
